This note sets out measurements from patent US20250011739, “ENGINEERED CAS PROTEIN AND USE THEREOF” (SHANDONG SHUNFENG BIOTECHNOLOGY CO.LTD., published 2025).

What all share (assay): cell_activity; PAM ATG; GFP reporter in CHO cells
The data set “enCas-SF02 (Cas12j19 …)” addresses T1, enCas-SF02 (Cas12j19 E100K-S400R-L763R-S45T) (E100K,S400R,L763R,S45T).
T1 chain: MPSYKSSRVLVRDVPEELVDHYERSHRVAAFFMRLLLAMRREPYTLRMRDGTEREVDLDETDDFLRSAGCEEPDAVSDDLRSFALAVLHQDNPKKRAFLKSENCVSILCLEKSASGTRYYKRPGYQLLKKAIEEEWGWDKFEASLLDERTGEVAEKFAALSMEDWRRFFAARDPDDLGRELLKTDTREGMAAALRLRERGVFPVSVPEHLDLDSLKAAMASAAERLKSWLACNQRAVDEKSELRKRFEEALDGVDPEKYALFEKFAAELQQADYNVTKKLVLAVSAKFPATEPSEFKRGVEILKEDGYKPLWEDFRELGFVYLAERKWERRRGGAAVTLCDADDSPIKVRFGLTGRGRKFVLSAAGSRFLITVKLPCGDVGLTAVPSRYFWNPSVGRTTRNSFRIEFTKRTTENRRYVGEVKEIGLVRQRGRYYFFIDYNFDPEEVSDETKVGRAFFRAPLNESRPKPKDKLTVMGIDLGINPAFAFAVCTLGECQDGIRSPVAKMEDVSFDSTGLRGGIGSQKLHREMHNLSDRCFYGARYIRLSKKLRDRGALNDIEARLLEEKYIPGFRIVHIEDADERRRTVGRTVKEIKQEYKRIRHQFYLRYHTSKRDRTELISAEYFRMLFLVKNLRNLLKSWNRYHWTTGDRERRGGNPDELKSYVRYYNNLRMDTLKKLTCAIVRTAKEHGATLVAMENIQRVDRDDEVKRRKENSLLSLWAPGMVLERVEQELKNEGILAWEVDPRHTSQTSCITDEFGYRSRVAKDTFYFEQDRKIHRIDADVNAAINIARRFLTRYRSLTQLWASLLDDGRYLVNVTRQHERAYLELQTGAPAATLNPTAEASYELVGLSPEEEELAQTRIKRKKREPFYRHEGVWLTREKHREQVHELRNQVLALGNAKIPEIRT
From the text: (§1) With reference to (Yang, Yi, et al. “Highly efficient and rapid detection of the cleavage activity of Cas9/gRNA via a fluorescent reporter.” Applied biochemistry and biotechnology 180.4 (2016): 655-667.), a fluorescent reporter system for verification of Cas12j19 cleavage was constructed, where a fluorescent reporter vector carried an RFP and a non-luminous GFFP, and a Cas vector carried a CFP. A target FUT8-3: […] (SEQ ID NO: 28) on a GFFP sequence was selected for testing, where an underlined part was a PAM sequence. A DR sequence was […] (SEQ ID NO: 29). 48 h after a CHO cell was transfected, a proportion of GFP fluorescence in CFP and RFP fluorescence was determined by FCM to determine an editing efficiency.
(§2) In this example, in SEQ ID NO: 19, an amino acid 100 was mutated into K, an amino acid 400 was mutated into R, and an amino acid 763 was mutated into R to obtain a three site-mutated protein E100K-S400R-L763R; and in SEQ ID NO: 19, an amino acid 100 was mutated into K, an amino acid 400 was mutated into R, an amino acid 763 was mutated into R, and an amino acid 45 was mutated into T to obtain a four site-mutated protein E100K-S400R-L763R-S45T.

The next data set concerns the target T2, Cas12j19 WT.
T2 chain: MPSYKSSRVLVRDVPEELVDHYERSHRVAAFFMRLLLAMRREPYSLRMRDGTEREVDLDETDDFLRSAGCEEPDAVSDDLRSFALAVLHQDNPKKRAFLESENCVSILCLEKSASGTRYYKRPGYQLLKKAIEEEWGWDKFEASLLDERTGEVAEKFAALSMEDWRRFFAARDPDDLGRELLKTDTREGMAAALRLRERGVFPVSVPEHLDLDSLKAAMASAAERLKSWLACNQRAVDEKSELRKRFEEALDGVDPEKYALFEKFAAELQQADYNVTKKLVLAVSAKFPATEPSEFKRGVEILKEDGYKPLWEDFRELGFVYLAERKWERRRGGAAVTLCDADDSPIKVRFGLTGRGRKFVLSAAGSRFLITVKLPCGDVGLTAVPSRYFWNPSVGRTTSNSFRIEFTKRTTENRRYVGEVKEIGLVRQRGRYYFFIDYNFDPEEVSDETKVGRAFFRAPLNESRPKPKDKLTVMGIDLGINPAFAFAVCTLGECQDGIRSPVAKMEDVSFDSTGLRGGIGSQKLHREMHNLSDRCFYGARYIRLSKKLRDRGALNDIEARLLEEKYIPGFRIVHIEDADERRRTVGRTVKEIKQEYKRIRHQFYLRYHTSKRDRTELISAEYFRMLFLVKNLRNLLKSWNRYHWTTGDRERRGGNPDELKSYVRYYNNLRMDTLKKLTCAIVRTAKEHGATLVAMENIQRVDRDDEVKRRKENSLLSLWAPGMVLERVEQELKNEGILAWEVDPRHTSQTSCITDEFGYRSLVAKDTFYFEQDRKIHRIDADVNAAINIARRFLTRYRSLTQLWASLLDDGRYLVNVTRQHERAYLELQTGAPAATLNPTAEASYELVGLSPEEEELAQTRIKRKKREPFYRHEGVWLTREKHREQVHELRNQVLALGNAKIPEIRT
Excerpt: as §1, §2

Data set [1] concerns the target T3, Cas12j19 E100K-S400R-L763R (E100K,S400R,L763R).
T3 chain: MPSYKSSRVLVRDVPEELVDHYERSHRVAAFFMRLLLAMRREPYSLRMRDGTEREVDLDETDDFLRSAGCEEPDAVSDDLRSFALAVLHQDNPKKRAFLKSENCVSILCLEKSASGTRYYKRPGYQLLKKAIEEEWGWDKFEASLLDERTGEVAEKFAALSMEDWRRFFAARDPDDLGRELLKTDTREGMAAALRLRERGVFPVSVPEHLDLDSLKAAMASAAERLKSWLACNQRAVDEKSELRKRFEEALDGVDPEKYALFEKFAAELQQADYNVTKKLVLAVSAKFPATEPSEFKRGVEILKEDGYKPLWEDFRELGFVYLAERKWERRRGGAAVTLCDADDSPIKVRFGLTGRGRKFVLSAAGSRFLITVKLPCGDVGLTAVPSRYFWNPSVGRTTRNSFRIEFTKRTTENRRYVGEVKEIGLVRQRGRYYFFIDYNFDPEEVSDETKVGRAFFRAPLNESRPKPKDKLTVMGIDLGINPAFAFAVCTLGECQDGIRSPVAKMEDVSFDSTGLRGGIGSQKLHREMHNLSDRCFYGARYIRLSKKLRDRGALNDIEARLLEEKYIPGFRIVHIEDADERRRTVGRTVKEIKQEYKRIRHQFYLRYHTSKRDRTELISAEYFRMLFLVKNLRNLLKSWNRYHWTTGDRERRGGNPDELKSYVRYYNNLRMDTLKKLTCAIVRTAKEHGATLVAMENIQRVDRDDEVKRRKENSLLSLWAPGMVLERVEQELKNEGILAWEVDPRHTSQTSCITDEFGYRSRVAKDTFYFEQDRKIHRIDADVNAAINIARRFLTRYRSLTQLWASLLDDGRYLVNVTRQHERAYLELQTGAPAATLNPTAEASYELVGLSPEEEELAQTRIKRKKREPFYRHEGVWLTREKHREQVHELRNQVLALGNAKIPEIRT
Excerpt: as §1, §2

B1: Cas12j19 FUT8-3 guide (DR + spacer, order inferred) ; FUT8-3 target (ssRNA ; dsDNA)
RNA: GUGCUGCUGUCUCCCAGACGGGAGGCAGAACUGCACGAGGCUGUCUACAAUGGGGA
DNA 1: ATGGAGGCTGTCTACAATGGGGA
DNA 2: TCCCCATTGTAGACAGCCTCCAT
With B1, the activity is about 90% with enCas-SF02 (Cas12j19 …), about 6% with Cas12j19 WT and about 90% in data set [1].
